Results: publication PMC8439235, “High-yield synthesis and purification of recombinant human GABA transaminase for high-throughput screening assays” (Journal of Enzyme Inhibition and Medicinal Chemistry, 2021)

Target: the molecule itself
Experiment: SEC; Superdex 200 Increase 10/300 GL, 50 mM K4P2O7 buffer pH 8.6, 0.5 ml/min, 4 °C; size judged against standard peaks (158 kDa and 44 kDa) and the 53 kDa monomer band on reducing SDS-PAGE

B1: 6xHis-tagged recombinant human GABA transaminase (GABA-T) (enzyme)
chain: not shown
notes: human GABA transaminase (GABA-T; EC 2.6.1.19) encoded by the ABAT gene; The band on reducing SDS-PAGE was 53 kDa; The purification tag was not removed; also called γ-aminobutyric acid transaminase; 4-aminobutyrate transaminase; source: Expi293F cells, transiently transfected, purified (Ni-NTA, size-exclusion chromatography); not shown: Avi-tag (preceded by an HRV 3C protease site), C-terminal, …
stoichiometry N: 2
